“And” between values parts separate entries of the source, which are not always exact repeats. Equal entries are not always repeated.
Experiments:
[1] = target: soluble Tau in Alzheimer's disease human brain lysate (human) (UniProt P10636); assay: ELISA on coated brain lysate, antibody 5 nM
[2] = target: soluble Tau in control human brain lysate (human) (UniProt P10636); assay: ELISA on coated brain lysate, antibody 5 nM
[3] = target: soluble Tau in Alzheimer's disease human brain lysate (human) (UniProt P10636); assay: ELISA on coated brain lysate, antibody 0.5 nM
[4] = target: soluble Tau in control human brain lysate (human) (UniProt P10636); assay: ELISA on coated brain lysate, antibody 0.5 nM

Chain of soluble Tau in Alzheimer's disease human brain lysate (human) (P10636 other isoform, or with tags, fused parts or gaps limits assumed): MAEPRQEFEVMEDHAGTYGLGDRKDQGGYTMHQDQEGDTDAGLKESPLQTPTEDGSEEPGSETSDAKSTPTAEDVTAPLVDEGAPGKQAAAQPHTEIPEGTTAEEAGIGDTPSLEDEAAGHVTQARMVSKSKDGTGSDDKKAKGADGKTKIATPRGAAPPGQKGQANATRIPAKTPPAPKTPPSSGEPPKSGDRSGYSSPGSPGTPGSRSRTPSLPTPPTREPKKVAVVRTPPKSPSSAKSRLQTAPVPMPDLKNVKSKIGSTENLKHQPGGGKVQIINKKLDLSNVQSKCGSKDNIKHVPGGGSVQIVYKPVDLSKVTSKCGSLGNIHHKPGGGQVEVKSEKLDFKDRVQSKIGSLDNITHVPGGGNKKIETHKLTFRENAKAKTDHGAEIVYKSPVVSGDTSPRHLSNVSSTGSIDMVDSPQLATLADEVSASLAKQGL
Chain of soluble Tau in control human brain lysate (human) (P10636 other isoform, or with tags, fused parts or gaps limits assumed): as above

Substance: anti-RSV antibody (negative control)
- ELISA signal [1]: 0.108 and 0.107 and 0.117
- ELISA signal [2]: 0.151 and 0.107 and 0.11
- ELISA signal [3]: 0.108 and 0.117 and 0.115
- ELISA signal [4]: 0.147 and 0.106 and 0.108
